Measured values from patent publication US7008781.

Biological target: Tie-2 receptor in EAhy926 cells (UniProt Q02763)
Experiment: cell-based or functional assay
Conditions: scale: fold molar excess of Ang1*

UniProt Q02763, sequence (Q02763 23-1124 limits assumed): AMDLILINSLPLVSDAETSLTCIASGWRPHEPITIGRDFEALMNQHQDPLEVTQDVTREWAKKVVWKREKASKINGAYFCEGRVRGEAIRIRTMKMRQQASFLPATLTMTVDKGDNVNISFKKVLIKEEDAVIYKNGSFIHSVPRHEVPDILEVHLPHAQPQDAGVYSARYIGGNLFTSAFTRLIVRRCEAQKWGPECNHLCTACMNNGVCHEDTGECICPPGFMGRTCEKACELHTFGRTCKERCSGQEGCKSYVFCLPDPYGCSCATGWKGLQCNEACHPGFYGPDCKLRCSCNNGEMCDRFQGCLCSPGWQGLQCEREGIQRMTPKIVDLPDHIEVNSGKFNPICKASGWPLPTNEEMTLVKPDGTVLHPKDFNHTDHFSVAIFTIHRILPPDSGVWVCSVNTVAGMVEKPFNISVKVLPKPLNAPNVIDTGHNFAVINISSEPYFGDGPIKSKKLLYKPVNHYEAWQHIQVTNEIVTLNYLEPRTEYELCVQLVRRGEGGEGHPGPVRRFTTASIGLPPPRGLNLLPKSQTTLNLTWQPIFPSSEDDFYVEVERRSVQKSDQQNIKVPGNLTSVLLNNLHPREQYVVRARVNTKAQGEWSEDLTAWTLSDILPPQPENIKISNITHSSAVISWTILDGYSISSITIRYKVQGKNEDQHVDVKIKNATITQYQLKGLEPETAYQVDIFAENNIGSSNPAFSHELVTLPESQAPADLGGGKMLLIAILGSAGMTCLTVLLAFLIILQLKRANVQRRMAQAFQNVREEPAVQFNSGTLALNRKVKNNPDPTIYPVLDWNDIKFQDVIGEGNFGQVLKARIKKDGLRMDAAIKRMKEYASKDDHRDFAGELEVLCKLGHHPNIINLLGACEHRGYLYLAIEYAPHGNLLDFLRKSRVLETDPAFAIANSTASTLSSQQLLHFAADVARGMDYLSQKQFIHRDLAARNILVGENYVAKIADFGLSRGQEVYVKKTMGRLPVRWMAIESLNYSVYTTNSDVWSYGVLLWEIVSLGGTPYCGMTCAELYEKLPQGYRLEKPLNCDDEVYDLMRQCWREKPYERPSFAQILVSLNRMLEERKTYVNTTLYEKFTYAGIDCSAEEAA

block of Ang1*-mediated Tie-2 receptor phosphorylation in EAhy926 cells: > 20
Substance: angiopoietin-2 (from UniProt O15123 19-496) (ligand)
